Assay results as given in publication PMC10602137 (2023).

T1: GAD65 peptide on HLA-DRA*01:01 / HLA-DRB1*04:01 (human)
T1 peptide: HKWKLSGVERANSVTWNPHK

T2: influenza M protein (Influenza A MP54; also given MP74) peptide on HLA-DRA*01:01 / HLA-DRB1*04:01 (human)
T2 peptide: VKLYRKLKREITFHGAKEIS

B1: Clone_81 (TCR)
alpha TRAV29DV5 TRAJ45 CDR3: CAASRYSGGGADGLTF
beta TRBV12-4 TRBJ1-1 CDR3: CASSPQGGNTEAFF
B2: Clone_566 (TCR)
alpha TRAV29DV5 TRAJ45 CDR3: CAASRYSGGGADGLTF
beta TRBV12-4 TRBJ1-1 CDR3: CASSVQGGNTEAFF
B3: P196-1 (TCR)
alpha TRAV29DV5 TRAJ45 CDR3: CAASRYSGGGADGLTF
beta TRBV12-4 TRBJ1-1 CDR3: CASSLQGGNTEAFF

Target: T1, GAD65 peptide on HLA-DRA*01:01 / …
Experiment: proliferation
B1: recognises. B2: recognises. B3: recognises.

Target: T2, influenza M protein (Influenza A MP54; …)
Experiment: proliferation
B1: recognises. B2: recognises. B3: recognises.
